Assay in all cases: fluorescence polarization
What all share (settings): 50 mM Tris-HCl pH 8.0, 50 mM KCl, 1 mM EDTA; 50 nM labeled oligonucleotide; temperature not stated

The target of one data set is SAMHD1 HD domain WT (UniProt Q9Y3Z3).
Data set [1] addresses SAMHD1 HD domain R366C R366C (UniProt Q9Y3Z3).
For data set [2], the target named is SAMHD1 HD domain R366H R366H (UniProt Q9Y3Z3).

This note sets out measurements from paper PMC8497992.

SAMHD1 HD domain R366C R366C, sequence (Q9Y3Z3 114-626 R366C): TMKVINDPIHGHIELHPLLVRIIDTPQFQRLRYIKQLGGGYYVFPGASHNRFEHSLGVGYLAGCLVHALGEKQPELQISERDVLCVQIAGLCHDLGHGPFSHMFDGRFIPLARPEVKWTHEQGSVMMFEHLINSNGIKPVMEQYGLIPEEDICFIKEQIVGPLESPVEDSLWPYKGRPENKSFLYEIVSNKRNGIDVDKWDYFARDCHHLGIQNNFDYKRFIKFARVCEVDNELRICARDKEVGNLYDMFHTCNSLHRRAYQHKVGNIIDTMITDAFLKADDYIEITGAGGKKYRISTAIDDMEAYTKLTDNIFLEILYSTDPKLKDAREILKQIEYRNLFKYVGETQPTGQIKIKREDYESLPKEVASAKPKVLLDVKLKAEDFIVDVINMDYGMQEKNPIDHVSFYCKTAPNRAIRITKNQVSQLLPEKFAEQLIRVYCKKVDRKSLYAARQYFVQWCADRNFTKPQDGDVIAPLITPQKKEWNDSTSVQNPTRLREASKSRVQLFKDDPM
SAMHD1 HD domain R366H R366H, sequence (Q9Y3Z3 114-626 R366H): as the sequence (Q9Y3Z3 114-626 R366C) above, with C253H counted along it
SAMHD1 HD domain WT, sequence (Q9Y3Z3 114-626): as the sequence (Q9Y3Z3 114-626 R366C) above, with C253R counted along it

6FAM-ssDNA57: the Kd with SAMHD1 HD domain WT worked out at 0.387 µM; in data set [1], 3.83 µM; in data set [2], 2.96 µM.
Taken in the same sequence, the figures for 6FAM-ssRNA40 were 0.885 µM, 2.25 µM and 2.48 µM.
